Measured values published in patent US20240343771A1 (Chugai, published 2024).
Substitutions are numbered along the chain they refer to. Numbers in names are those of the source.

T1: human IL-12 (human, UniProt P29460 23-328; P29459 23-219)
T1 construct: also called Interleukin-12
T1 sequence 1: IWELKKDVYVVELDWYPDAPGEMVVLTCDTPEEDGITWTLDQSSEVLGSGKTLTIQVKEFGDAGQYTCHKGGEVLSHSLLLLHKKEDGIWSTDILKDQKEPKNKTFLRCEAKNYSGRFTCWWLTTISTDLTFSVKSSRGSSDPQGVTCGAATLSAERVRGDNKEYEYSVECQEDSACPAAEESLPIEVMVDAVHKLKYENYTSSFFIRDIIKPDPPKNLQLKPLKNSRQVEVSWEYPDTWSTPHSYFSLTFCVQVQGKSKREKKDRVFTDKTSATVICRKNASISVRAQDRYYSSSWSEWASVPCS
T1 sequence 2: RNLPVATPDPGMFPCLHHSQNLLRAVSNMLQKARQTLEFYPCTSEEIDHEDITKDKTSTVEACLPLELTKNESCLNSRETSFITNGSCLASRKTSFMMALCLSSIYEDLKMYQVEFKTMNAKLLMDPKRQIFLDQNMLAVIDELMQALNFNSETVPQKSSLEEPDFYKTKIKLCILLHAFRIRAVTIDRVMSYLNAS

B1: Anti-IL-12 antibody Ab1 variant F100aI VH/L46Q, Y49A VL (antibody, name in Kabat numbering, V domains shown)
VH: QVQLVQSGAEVKKPGSSVKVSCKASGGTFSDYYLHWVRQAPGQGLEWMGWIDPENGDTEYAPKFQGRVTITADESTSTAYMELSSLRSEDTAVYYCARNKELRYIDVWGQGTLVTVSS
VL: DIVMTQSPLSLPVTPGEPASISCRASQSISINLHWYQQKPGQAPRQLIAFASQSISGVPSRFSGSGSGTDFTLTISSLQPEDFATYYCQQSNSFPLTFGQGTKVEIKR
notes: Ab1 with VH/VL interface substitutions; Kabat numbering
B2: Anti-IL-12 antibody Ab1 variant V37S VH/L46Q, Y49A, Y87M VL (antibody, name in Kabat numbering, V domains shown)
VH: B1 VH with V37S, I105F
VL: B1 VL with Y87M
notes: as for B1
B3: Anti-IL-12 antibody Ab1 variant F100aI VH/Y49A, F98L VL (antibody, name in Kabat numbering, V domains shown)
VH: B1 VH
VL: B1 VL with Q46L, F98L
notes: as for B1
B4: Anti-IL-12 antibody Ab1 variant V37S VH/P44A, Y49A VL (antibody, name in Kabat numbering, V domains shown)
VH: B1 VH with V37S, I105F
VL: B1 VL with P44A, Q46L
notes: as for B1
B5: Anti-IL-12 antibody Ab1 variant L45Q VH/P44A, Y49A VL (antibody, name in Kabat numbering, V domains shown)
VH: B1 VH with L45Q, I105F
VL: B1 VL with P44A, Q46L
notes: as for B1
B6: Anti-IL-12 antibody Ab1 variant V37S VH/Y49A, F98L VL (antibody, name in Kabat numbering, V domains shown)
VH: B1 VH with V37S, I105F
VL: B1 VL with Q46L, F98L
notes: as for B1
B7: Anti-IL-12 antibody Ab1 variant V37S VH/- (antibody, name in Kabat numbering, V domains shown)
VH: B1 VH with V37S, I105F
VL: B1 VL with Q46L, A49Y
notes: as for B1
B8: Anti-IL-12 antibody Ab1 variant V37S, W103M VH/A43Q, Y49A VL (antibody, name in Kabat numbering)
heavy: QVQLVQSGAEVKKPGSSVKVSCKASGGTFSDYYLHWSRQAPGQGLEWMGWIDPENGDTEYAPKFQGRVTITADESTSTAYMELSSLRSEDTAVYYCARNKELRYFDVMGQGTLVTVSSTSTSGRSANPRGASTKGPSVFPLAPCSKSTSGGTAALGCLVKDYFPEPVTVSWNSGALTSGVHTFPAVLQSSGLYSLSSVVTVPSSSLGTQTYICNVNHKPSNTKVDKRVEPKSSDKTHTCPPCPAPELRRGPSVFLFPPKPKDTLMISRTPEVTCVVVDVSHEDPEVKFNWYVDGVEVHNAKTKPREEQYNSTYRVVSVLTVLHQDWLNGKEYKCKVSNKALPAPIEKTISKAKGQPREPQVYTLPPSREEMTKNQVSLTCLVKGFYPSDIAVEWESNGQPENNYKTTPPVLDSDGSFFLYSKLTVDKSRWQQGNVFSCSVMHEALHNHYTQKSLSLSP
light: DIVMTQSPLSLPVTPGEPASISCRASQSISINLHWYQQKPGQQPRLLIAFASQSISGVPSRFSGSGSGTDFTLTISSLQPEDFATYYCQQSNSFPLTFGQGTKVEIKRTVAAPSVFIFPPSDEQLKSGTASVVCLLNNFYPREAKVQWKVDNALQSGNSQESVTEQDSKDSTYSLSSTLTLSKADYEKHKVYACEVTHQGLSSPVTKSFNRGEC
notes: as for B1
B9: Anti-IL-12 antibody Ab1 variant V37S VH/L46Q, Y49A VL (antibody, name in Kabat numbering, V domains shown)
VH: B1 VH with V37S, I105F
VL: B1 VL
notes: as for B1
B10: Anti-IL-12 antibody Ab1 variant V37S VH/A43Q, Y49A VL (antibody, name in Kabat numbering)
heavy: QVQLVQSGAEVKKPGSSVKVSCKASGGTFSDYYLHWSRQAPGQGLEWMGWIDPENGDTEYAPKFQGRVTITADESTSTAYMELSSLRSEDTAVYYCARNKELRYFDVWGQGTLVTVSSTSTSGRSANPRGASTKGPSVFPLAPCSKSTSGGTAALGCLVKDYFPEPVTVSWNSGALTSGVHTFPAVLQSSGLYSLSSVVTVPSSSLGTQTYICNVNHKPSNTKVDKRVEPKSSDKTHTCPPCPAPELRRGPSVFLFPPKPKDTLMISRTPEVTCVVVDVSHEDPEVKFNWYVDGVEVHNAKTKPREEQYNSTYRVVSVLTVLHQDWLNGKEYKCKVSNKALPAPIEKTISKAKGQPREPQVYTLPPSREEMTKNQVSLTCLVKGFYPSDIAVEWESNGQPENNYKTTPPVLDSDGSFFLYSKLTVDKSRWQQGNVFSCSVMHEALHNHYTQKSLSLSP
light: B8 light
notes: as for B1
B11: Anti-IL-12 antibody Ab1 variant V37Q VH/- (antibody, name in Kabat numbering, V domains shown)
VH: B1 VH with V37Q, I105F
VL: B1 VL with Q46L, A49Y
notes: as for B1
B12: Anti-IL-12 antibody Ab1 variant V37S, Y91M VH/A43Q, Y49A VL (antibody, name in Kabat numbering, V domains shown)
VH: B1 VH with V37S, Y95M, I105F
VL: B1 VL with A43Q, Q46L
notes: as for B1
B13: Anti-IL-12 antibody Ab1 variant F100aI VH/L46Q, Y49A, Y87M VL (antibody, name in Kabat numbering, V domains shown)
VH: B1 VH
VL: B1 VL with Y87M
notes: as for B1
B14: Anti-IL-12 antibody Ab1 variant L45Q VH/Y49A, Y87L VL (antibody, name in Kabat numbering, V domains shown)
VH: B1 VH with L45Q, I105F
VL: B1 VL with Q46L, Y87L
notes: as for B1
B15: Anti-IL-12 antibody Ab1 variant V37S, F100aI VH/L46Q, Y49A VL (antibody, name in Kabat numbering, V domains shown)
VH: B1 VH with V37S
VL: B1 VL
notes: as for B1
B16: Anti-IL-12 antibody Ab1 variant F100aI VH/P44A, Y49A VL (antibody, name in Kabat numbering, V domains shown)
VH: B1 VH
VL: B1 VL with P44A, Q46L
notes: as for B1
B17: Anti-IL-12 antibody Ab1 variant V37S, Y91M VH/L46Q, Y49A VL (antibody, name in Kabat numbering, V domains shown)
VH: B1 VH with V37S, Y95M, I105F
VL: B1 VL
notes: as for B1
B18: Anti-IL-12 antibody Ab1 variant G44Q VH/- (antibody, name in Kabat numbering, V domains shown)
VH: B1 VH with G44Q, I105F
VL: B1 VL with Q46L, A49Y
notes: as for B1
B19: Anti-IL-12 antibody Ab1 variant V37S, L45Q VH/Y49A, Y87M VL (antibody, name in Kabat numbering, V domains shown)
VH: B1 VH with V37S, L45Q, I105F
VL: B1 VL with Q46L, Y87M
notes: as for B1
B20: Anti-IL-12 antibody Ab1 variant F100aI VH/Y49A, Y87L VL (antibody, name in Kabat numbering, V domains shown)
VH: B1 VH
VL: B1 VL with Q46L, Y87L
notes: as for B1
B21: Anti-IL-12 antibody Ab1 variant W103A VH/- (antibody, name in Kabat numbering)
heavy: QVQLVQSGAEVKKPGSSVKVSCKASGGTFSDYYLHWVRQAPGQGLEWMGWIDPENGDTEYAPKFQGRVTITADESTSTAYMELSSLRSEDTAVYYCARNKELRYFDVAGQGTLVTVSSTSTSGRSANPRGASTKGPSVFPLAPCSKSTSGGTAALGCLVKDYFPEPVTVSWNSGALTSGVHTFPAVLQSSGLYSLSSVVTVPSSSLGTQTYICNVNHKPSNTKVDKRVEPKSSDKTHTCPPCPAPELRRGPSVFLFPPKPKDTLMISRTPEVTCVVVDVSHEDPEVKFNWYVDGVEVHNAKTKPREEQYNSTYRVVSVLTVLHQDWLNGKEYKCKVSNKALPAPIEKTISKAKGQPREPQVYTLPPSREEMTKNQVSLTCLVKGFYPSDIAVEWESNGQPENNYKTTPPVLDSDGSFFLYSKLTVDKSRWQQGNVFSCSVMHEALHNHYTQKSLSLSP
light: B8 light with Q43A, A49Y
notes: as for B1
B22: Anti-IL-12 antibody Ab1 variant V37S VH/Y49A, Y87L VL (antibody, name in Kabat numbering, V domains shown)
VH: B1 VH with V37S, I105F
VL: B1 VL with Q46L, Y87L
notes: as for B1
B23: Anti-IL-12 antibody Ab1 variant V37S, L45Q VH/A43Q, Y49A VL (antibody, name in Kabat numbering, V domains shown)
VH: B1 VH with V37S, L45Q, I105F
VL: B1 VL with A43Q, Q46L
notes: as for B1
B24: Anti-IL-12 antibody Ab1 variant V37S, F100aI VH/A43Q, Y49A VL (antibody, name in Kabat numbering, V domains shown)
VH: B1 VH with V37S
VL: B1 VL with A43Q, Q46L
notes: as for B1
B25: Anti-IL-12 antibody Ab1 variant L45A VH/- (antibody, name in Kabat numbering, V domains shown)
VH: B1 VH with L45A, I105F
VL: B1 VL with Q46L, A49Y
notes: as for B1
B26: Anti-IL-12 antibody Ab1 variant L45Q VH/A43Q, Y49A VL (antibody, name in Kabat numbering, V domains shown)
VH: B1 VH with L45Q, I105F
VL: B1 VL with A43Q, Q46L
notes: as for B1
B27: Anti-IL-12 antibody Ab1 variant L45Q VH/- (antibody, name in Kabat numbering, V domains shown)
VH: B1 VH with L45Q, I105F
VL: B1 VL with Q46L, A49Y
notes: as for B1
B28: Anti-IL-12 antibody Ab1 variant L45Q VH/Y49A, F98M VL (antibody, name in Kabat numbering, V domains shown)
VH: B1 VH with L45Q, I105F
VL: B1 VL with Q46L, F98M
notes: as for B1
B29: Anti-IL-12 antibody Ab1 variant L45Q VH/L46Q, Y49A VL (antibody, name in Kabat numbering, V domains shown)
VH: B1 VH with L45Q, I105F
VL: B1 VL
notes: as for B1

molecular target: T1, human IL-12; assay: SPR (Biacore T200), 37 C, pH 7.4; captured antibody, IL-12 analyte
Protocol: The affinity of anti-IL-12 antibodies binding to human IL-12 at pH 7.4 were determined at 37 degrees C. using Biacore T200 instrument (Cytiva). Anti-human Fc antibody (Cytiva) was immobilized onto all flow cells (FCs) of a CM4 sensor chip using amine coupling kit (Cytiva). All antibodies and analytes were prepared in ACES pH 7.4 containing 20 mM ACES, 150 mM NaCl, 0.05% Tween 20, 0.005% NaN₃. Each antibody was captured onto the sensor surface by anti-human Fc antibody. Antibody capture levels were aimed at 50 response unit (RU). 5 nM of human IL-12 were injected as analyte, followed by dissociation. Sensor surface was regenerated each cycle with 3M MgCl₂. […] Based on the results in Table 9, it is observed that binding kinetics of anti-IL-12 antibody AbI variants towards IL-12 were not drastically changed compared to control (−/−).

B1 and B2 are within 1.5-fold of each other in Kd: 3.48 nM for the first, 3.87 nM for the second.

Going from B3 to B4, the Kd rises from 1.44 nM to 2.96 nM (2.1-fold).

First: B5
Second: B6
The Kd of the first is 2.8-fold higher: 2.74 nM for the first, 0.982 nM for the second. The second binds more tightly here.

B7 and B8 are within 1.5-fold of each other in Kd: 0.789 nM for the first, 0.828 nM for the second.

First: B9
Second: B10
The Kd of the first is 2.1-fold higher: 3.06 nM for the first, 1.49 nM for the second. The second binds more tightly here.

B11 and B12 are within 1.5-fold of each other in Kd: 1.48 nM for the first, 1.79 nM for the second.

B13 and B14 are within 1.5-fold of each other in Kd: 3.68 nM for the first, 3.61 nM for the second.

Going from B15 to B16, the Kd falls from 2.98 nM to 1.25 nM (2.4-fold). The second binds more tightly here.

First: B17
Second: B18
The Kd of the first is 4.3-fold higher: 3.44 nM for the first, 0.793 nM for the second.

B19 and B20 are within 1.5-fold of each other in Kd: 2.92 nM for the first, 2.1 nM for the second.

First: B21
Second: B22
The Kd of the first is 9.2-fold lower: 0.331 nM for the first, 3.04 nM for the second. The first binds more tightly here.

Going from B23 to B24, the Kd falls from 3.13 nM to 1.12 nM (2.8-fold). The second binds more tightly here.

First: B25
Second: B26
The Kd of the first is 1.8-fold lower: 1.27 nM for the first, 2.23 nM for the second.

Compared with B27, B28 is 2.5-fold higher in Kd: 1.3 nM for the first, 3.27 nM for the second.

With B29 the Kd was 2.82 nM.
